One block for each binder: values may come before it.
Columns and labels:
[1] = target: T1, human CD40 expressed on CHO cells (human, UniProt P25942 21-277); assay: FACS, CHO cells
T1 construct: whole, on cells; also used for the reporter cells over-expressing human CD40; also called cellular CD40; CHO-CD40 cells

[2] = target: T2, human B7H4 expressed on CHO cells (human, UniProt Q7Z7D3 25-282); assay: FACS, CHO cells
T2 construct: whole, on cells; also called VCTN1
T2 sequence (looked up): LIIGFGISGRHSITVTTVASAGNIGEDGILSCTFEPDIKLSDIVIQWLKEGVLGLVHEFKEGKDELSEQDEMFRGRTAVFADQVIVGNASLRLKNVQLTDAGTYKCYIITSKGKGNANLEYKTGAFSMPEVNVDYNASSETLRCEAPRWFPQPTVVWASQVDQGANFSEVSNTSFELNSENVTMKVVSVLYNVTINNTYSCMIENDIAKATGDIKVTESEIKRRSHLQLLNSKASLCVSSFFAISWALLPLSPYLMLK

T1 sequence (P25942 21-277): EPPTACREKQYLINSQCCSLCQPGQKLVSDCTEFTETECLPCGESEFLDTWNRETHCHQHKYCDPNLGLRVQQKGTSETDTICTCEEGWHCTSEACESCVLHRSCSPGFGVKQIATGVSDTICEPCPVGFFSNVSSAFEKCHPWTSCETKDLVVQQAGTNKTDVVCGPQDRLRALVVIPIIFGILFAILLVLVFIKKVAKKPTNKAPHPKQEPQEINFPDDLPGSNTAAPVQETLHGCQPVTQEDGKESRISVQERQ

binding result [1]: binds | binding result [2]: binds
B1: Ly488 (bispecific antibody, human IgG1, kappa)
heavy: EVQLVESGGGLVKPGGSLKLSCAASGFTFSDSGMHWVRQAPEKGLEWITYINSGSSTIYYADSVKGRFTISRDNAKNTLFLQMTSLRSEDTAMYYCARGRGYAMDYWGQGTSVTVSSASTKGPSVFPLAPSSKSTSGGTAALGCLVKDYFPEPVTVSWNSGALTSGVHTFPAVLQSSGLYSLSSVVTVPSSSLGTQTYICNVNHKPSNTKVDKKVEPKSCDKTHTCPPCPAPELLGPSVFLFPPKPKDTLMISRTPEVTCVVVDVSHEDPEVKFNWYVDGVEVHNAKTKPREEQYNSTYRVVSVLTVLHQDWLNGKEYKCKVSNKALPAPIEKTISKAKGQPREPQVYTLPPSREEMTKNQVSLTCLVKGFYPSDIAVEWESNGQPENNYKTTPPVLDSDGSFFLYSKLTVDKSRWQQGNVFSCSVMHEALHNHYTQKSLSLSPGK
light: EIVLTQSPTTMAASPGEKITIFCSASSSISSDFLHWYQQKPGFSPKLLIYRISNLASGVPARFSGSGSGTSYSLTIGTMEAEDVATYYCQQGSNVPRTFGGGTKLEIKRTVAAPSVFIFPPSDEQLKSGTASVVCLLNNFYPREAKVQWKVDNALQSGNSQESVTEQDSKDSTYSLSSTLTLSKADYEKHKVYACEVTHQGLSSPVTKSFNRGECGGGGSGGGGSGGGGSGGGGSDIQMTQSPSSLSASVGDRVTITCKASQNIYIYLNWYQQKPGKAPKLLIYNTNNLQTGVPSRFSGSGSGTDFTLTISSLQPEDFATYYCLQHSSRRTFGGGTKVEIKGGGGSGGGGSGGGGSGGGGSQVQLVESGGGLVQPGGSLKLSCATSGFNFNDYFMNWVRQASGKGLEWVGQIRNKNYNYATYYTESLEGRVTISRDDSKNTAYLQMNSLKTEDTAVYYCTSYYYDGFADYFDYWGQGTTVTVSS
notes: Ly366 HC (IgG1 mutated Fc) + Ly366 LC-TM740 scFv VL-VH

binding result [1]: binds | binding result [2]: binds
B2: Ly493 (bispecific antibody, human IgG1, kappa)
heavy: B1 heavy
light: EIVLTQSPTTMAASPGEKITIFCSASSSISSDFLHWYQQKPGFSPKLLIYRISNLASGVPARFSGSGSGTSYSLTIGTMEAEDVATYYCQQGSNVPRTFGGGTKLEIKRTVAAPSVFIFPPSDEQLKSGTASVVCLLNNFYPREAKVQWKVDNALQSGNSQESVTEQDSKDSTYSLSSTLTLSKADYEKHKVYACEVTHQGLSSPVTKSFNRGECGGGGSGGGGSGGGGSGGGGSEVQLVESGGGLVQPGGSLRLSCAASGFTFTNYGLHWVRQAPGKGLEWVSSISPSGGVTYYRDSVKGRFTISRDNSKNTLYLQMNSLRAEDTAVYYCAKPFLGWGGANWIAHWGQGTLVTVSSGGGGSGGGGSGGGGSGGGGSDIQMTQSPSSLSASVGDRVTITCLASEDISNDLAWYQQKPGKAPKLLIYFVDRLLDGVPSRFSGSGSGTDFTLTISSLQPEDFATYYCQQSYKYPPTFGQGTKLEIK
notes: Ly366 HC (IgG1 mutated Fc) + Ly366 LC-TM559 scFv VH-VL

binding result [1]: binds | binding result [2]: binds
B3: Ly496 (bispecific antibody, human IgG1, kappa)
heavy: B1 heavy
light: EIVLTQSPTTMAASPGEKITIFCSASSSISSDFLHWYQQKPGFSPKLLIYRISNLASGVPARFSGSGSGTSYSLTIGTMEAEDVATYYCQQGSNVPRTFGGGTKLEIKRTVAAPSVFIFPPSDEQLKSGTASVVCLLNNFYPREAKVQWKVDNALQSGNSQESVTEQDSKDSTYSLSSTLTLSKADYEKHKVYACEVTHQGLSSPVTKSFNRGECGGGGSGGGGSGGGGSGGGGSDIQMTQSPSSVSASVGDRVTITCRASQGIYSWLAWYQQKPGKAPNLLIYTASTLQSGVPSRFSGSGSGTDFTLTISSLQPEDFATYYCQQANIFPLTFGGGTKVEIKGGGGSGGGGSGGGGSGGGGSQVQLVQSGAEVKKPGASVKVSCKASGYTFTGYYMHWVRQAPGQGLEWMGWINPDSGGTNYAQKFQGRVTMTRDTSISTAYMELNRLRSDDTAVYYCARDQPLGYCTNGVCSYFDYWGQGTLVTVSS
notes: Ly366 HC (IgG1 mutated Fc) + Ly366 LC-Ly253 scFv VL-VH

binding result [1]: binds | binding result [2]: binds
B4: Ly497 (bispecific antibody, human IgG1, kappa)
heavy: B1 heavy
light: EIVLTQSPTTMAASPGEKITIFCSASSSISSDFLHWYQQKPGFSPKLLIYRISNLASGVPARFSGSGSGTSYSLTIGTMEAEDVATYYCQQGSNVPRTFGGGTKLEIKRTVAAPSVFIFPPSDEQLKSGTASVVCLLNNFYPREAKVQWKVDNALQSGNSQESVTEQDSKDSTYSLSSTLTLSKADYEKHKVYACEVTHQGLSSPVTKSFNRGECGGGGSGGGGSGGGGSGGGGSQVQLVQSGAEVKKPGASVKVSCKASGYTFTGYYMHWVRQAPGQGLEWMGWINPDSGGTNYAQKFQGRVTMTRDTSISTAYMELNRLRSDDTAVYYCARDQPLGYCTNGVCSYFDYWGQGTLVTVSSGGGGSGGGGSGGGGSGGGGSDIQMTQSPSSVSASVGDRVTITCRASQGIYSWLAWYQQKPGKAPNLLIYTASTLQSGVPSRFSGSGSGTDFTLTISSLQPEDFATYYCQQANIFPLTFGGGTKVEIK
notes: Ly366 HC (IgG1 mutated Fc) + Ly366 LC-Ly253 scFv VH-VL

binding result [1]: binds | binding result [2]: binds
B5: Ly492 (bispecific antibody, human IgG1, kappa)
heavy: B1 heavy
light: EIVLTQSPTTMAASPGEKITIFCSASSSISSDFLHWYQQKPGFSPKLLIYRISNLASGVPARFSGSGSGTSYSLTIGTMEAEDVATYYCQQGSNVPRTFGGGTKLEIKRTVAAPSVFIFPPSDEQLKSGTASVVCLLNNFYPREAKVQWKVDNALQSGNSQESVTEQDSKDSTYSLSSTLTLSKADYEKHKVYACEVTHQGLSSPVTKSFNRGECGGGGSGGGGSGGGGSGGGGSDIQMTQSPSSLSASVGDRVTITCLASEDISNDLAWYQQKPGKAPKLLIYFVDRLLDGVPSRFSGSGSGTDFTLTISSLQPEDFATYYCQQSYKYPPTFGQGTKLEIKGGGGSGGGGSGGGGSGGGGSEVQLVESGGGLVQPGGSLRLSCAASGFTFTNYGLHWVRQAPGKGLEWVSSISPSGGVTYYRDSVKGRFTISRDNSKNTLYLQMNSLRAEDTAVYYCAKPFLGWGGANWIAHWGQGTLVTVSS
notes: Ly366 HC (IgG1 mutated Fc) + Ly366 LC-TM559 scFv VL-VH

binding result [1]: binds | binding result [2]: binds
B6: Ly489 (bispecific antibody, human IgG1, kappa)
heavy: B1 heavy
light: EIVLTQSPTTMAASPGEKITIFCSASSSISSDFLHWYQQKPGFSPKLLIYRISNLASGVPARFSGSGSGTSYSLTIGTMEAEDVATYYCQQGSNVPRTFGGGTKLEIKRTVAAPSVFIFPPSDEQLKSGTASVVCLLNNFYPREAKVQWKVDNALQSGNSQESVTEQDSKDSTYSLSSTLTLSKADYEKHKVYACEVTHQGLSSPVTKSFNRGECGGGGSGGGGSGGGGSGGGGSQVQLVESGGGLVQPGGSLKLSCATSGFNFNDYFMNWVRQASGKGLEWVGQIRNKNYNYATYYTESLEGRVTISRDDSKNTAYLQMNSLKTEDTAVYYCTSYYYDGFADYFDYWGQGTTVTVSSGGGGSGGGGSGGGGSGGGGSDIQMTQSPSSLSASVGDRVTITCKASQNIYIYLNWYQQKPGKAPKLLIYNTNNLQTGVPSRFSGSGSGTDFTLTISSLQPEDFATYYCLQHSSRRTFGGGTKVEIK
notes: Ly366 HC (IgG1 mutated Fc) + Ly366 LC-TM740 scFv VH-VL

binding result [2]: binds
B7: Ly366 (chimeric) (antibody, human IgG1, kappa, V domains shown)
VH: EVQLVESGGGLVKPGGSLKLSCAASGFTFSDSGMHWVRQAPEKGLEWITYINSGSSTIYYADSVKGRFTISRDNAKNTLFLQMTSLRSEDTAMYYCARGRGYAMDYWGQGTSVTVSS
VL: EIVLTQSPTTMAASPGEKITIFCSASSSISSDFLHWYQQKPGFSPKLLIYRISNLASGVPARFSGSGSGTSYSLTIGTMEAEDVATYYCQQGSNVPRTFGGGTKLEIKR
notes: chimeric, human IgG1 constant region; also called hybridoma 25F3

binding result [1]: binds | binding result [2]: binds
B8: Ly474 (bispecific antibody, human IgG1, kappa)
heavy: EVQLVESGGDLVKPGGSLKLSCAASGFTFSSYGMSWVRQTPDKRLEWVAAISTGGSYTYYPDSVKGRFTISRDTATNTLYLQMSTLKSEDTAMYYCTRRGATGSWFAYWGQGTLVTVSAASTKGPSVFPLAPSSKSTSGGTAALGCLVKDYFPEPVTVSWNSGALTSGVHTFPAVLQSSGLYSLSSVVTVPSSSLGTQTYICNVNHKPSNTKVDKKVEPKSCDKTHTCPPCPAPELLGPSVFLFPPKPKDTLMISRTPEVTCVVVDVSHEDPEVKFNWYVDGVEVHNAKTKPREEQYNSTYRVVSVLTVLHQDWLNGKEYKCKVSNKALPAPIEKTISKAKGQPREPQVYTLPPSREEMTKNQVSLTCLVKGFYPSDIAVEWESNGQPENNYKTTPPVLDSDGSFFLYSKLTVDKSRWQQGNVFSCSVMHEALHNHYTQKSLSLSPGGGGGSGGGGSGGGGSGGGGSDIQMTQSPSSLSASVGDRVTITCKASQNIYIYLNWYQQKPGKAPKLLIYNTNNLQTGVPSRFSGSGSGTDFTLTISSLQPEDFATYYCLQHSSRRTFGGGTKVEIKGGGGSGGGGSGGGGSGGGGSQVQLVESGGGLVQPGGSLKLSCATSGFNFNDYFMNWVRQASGKGLEWVGQIRNKNYNYATYYTESLEGRVTISRDDSKNTAYLQMNSLKTEDTAVYYCTSYYYDGFADYFDYWGQGTTVTVSS
light: DILMTQSPSSMSVSLGDTVSITCHASQGINNNIGWLQRKPGKSFKGLIYHGTNLEDGVPSRFSGSGSGADYSLTISSLESEDFADYYCVQYVQFPRTFGGGTKLEIKRTVAAPSVFIFPPSDEQLKSGTASVVCLLNNFYPREAKVQWKVDNALQSGNSQESVTEQDSKDSTYSLSSTLTLSKADYEKHKVYACEVTHQGLSSPVTKSFNRGEC
notes: Ly361 HC (IgG1 mutated Fc)-TM740 scFv VL-VH + Ly361 LC

binding result [1]: binds | binding result [2]: binds
B9: Ly486 (bispecific antibody, human IgG1, kappa)
heavy: EVQLVESGGGLVKPGGSLKLSCAASGFTFSDSGMHWVRQAPEKGLEWITYINSGSSTIYYADSVKGRFTISRDNAKNTLFLQMTSLRSEDTAMYYCARGRGYAMDYWGQGTSVTVSSASTKGPSVFPLAPSSKSTSGGTAALGCLVKDYFPEPVTVSWNSGALTSGVHTFPAVLQSSGLYSLSSVVTVPSSSLGTQTYICNVNHKPSNTKVDKKVEPKSCDKTHTCPPCPAPELLGPSVFLFPPKPKDTLMISRTPEVTCVVVDVSHEDPEVKFNWYVDGVEVHNAKTKPREEQYNSTYRVVSVLTVLHQDWLNGKEYKCKVSNKALPAPIEKTISKAKGQPREPQVYTLPPSREEMTKNQVSLTCLVKGFYPSDIAVEWESNGQPENNYKTTPPVLDSDGSFFLYSKLTVDKSRWQQGNVFSCSVMHEALHNHYTQKSLSLSPGGGGGSGGGGSGGGGSGGGGSDIQMTQSPSSLSASVGDRVTITCKASQNIYIYLNWYQQKPGKAPKLLIYNTNNLQTGVPSRFSGSGSGTDFTLTISSLQPEDFATYYCLQHSSRRTFGGGTKVEIKGGGGSGGGGSGGGGSGGGGSQVQLVESGGGLVQPGGSLKLSCATSGFNFNDYFMNWVRQASGKGLEWVGQIRNKNYNYATYYTESLEGRVTISRDDSKNTAYLQMNSLKTEDTAVYYCTSYYYDGFADYFDYWGQGTTVTVSS
light: EIVLTQSPTTMAASPGEKITIFCSASSSISSDFLHWYQQKPGFSPKLLIYRISNLASGVPARFSGSGSGTSYSLTIGTMEAEDVATYYCQQGSNVPRTFGGGTKLEIKRTVAAPSVFIFPPSDEQLKSGTASVVCLLNNFYPREAKVQWKVDNALQSGNSQESVTEQDSKDSTYSLSSTLTLSKADYEKHKVYACEVTHQGLSSPVTKSFNRGEC
notes: Ly366 HC (IgG1 mutated Fc)-TM740 scFv VL-VH + Ly366 LC
